Where a chain is given by its changes, count along the chain named. One block for each binder: values may come before it.
Tests used:
[1] = molecular target: T1, human Kell glycoprotein transgene (KEL1, Kp^b, Js^b variants) on murine RBCs (human, UniProt P23276 1-732); experiment: flow cytometry, indirect immunofluorescence on transgenic murine RBCs
T1 construct: whole, on cells; also called KELL glycoprotein transgenic murine RBCs; KEL1+RBCs
T1 sequence (looked up): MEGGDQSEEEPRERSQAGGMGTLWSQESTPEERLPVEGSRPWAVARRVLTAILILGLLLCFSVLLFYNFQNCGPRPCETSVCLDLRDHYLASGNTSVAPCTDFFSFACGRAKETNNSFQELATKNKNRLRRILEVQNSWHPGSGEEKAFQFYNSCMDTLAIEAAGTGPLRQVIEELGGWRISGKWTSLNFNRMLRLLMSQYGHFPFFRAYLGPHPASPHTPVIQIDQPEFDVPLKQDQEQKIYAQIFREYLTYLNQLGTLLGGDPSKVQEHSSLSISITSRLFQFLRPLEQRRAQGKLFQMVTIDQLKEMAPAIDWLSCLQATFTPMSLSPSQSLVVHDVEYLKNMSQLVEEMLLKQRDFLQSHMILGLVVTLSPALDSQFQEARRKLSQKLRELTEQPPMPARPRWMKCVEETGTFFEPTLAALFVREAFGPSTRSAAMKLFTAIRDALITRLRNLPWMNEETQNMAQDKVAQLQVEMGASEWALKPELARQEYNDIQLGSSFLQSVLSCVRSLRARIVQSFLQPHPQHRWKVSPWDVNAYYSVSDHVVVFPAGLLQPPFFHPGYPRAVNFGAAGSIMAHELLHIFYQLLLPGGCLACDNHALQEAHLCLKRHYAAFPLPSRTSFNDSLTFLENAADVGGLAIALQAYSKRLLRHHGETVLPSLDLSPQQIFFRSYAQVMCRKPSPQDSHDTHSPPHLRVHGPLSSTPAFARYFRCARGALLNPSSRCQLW
Experimental: (§1) The specificities of the antibodies are shown in FIGS. 7A, 7B, 8A, 8B, 9A-9C, and 10A-10I. The specificities of the antibodies were determined to be: PUMA1/2 (KEL1 or K), PUMA 3 (a common Kell epitope, PUMA 4 (KEL4 or Kp^b). Flow cytometry was utilized to test antibody specificity by indirect immunofluorescence, using the monocolonal antibodies as the primary reagent and a goat-anti-mouse antibody (conjugated to allophycocyanin) as a secondary antibody. Different target cells expressing different Kell variants were used to determine specificity. Targets included RBCs that phenotyped as homozygous for the 3 main antithetical antigens in the Kell system, K/K, k/k, Kp^b/Kp^b, Kp^a/Kp^a, Js^b/Js^b, Js^a/Js^a. Differential binding to such tarets tests specificity. In the case of PUMA ½, binding was only observed when K was present but not on k/k RBCs. In the case of PUMA 3, binding was observed on all RBCs regardless of phenotype for K/k, Kp^a/Kp^b, or Js^a/Js^b, thus indicating a common epitope outside these systems. However, PUMA 3 bound to only KELL glycoprotein transgenic murine RBCs and not wild-type murine RBCs; thus, the epitope recognized by PUMA 3 is on the KELL molecule, but not K/k, Kp^a/Kp^b, or Js^a/Js^b. For PUMA 4, binding was only observed when Kp^b was present but not on Kp^a/Kp^a RBCs.

[2] = molecular target: T2, human Kell glycoprotein, K (KEL1) form (human, UniProt P23276 1-732); experiment: flow cytometry, indirect immunofluorescence on K/K RBCs
T2 construct: whole, on cells; also called K form of the Kell glycoprotein; K/K RBCs
T2 sequence (looked up): T1 sequence (looked up)
Experimental: as §1

[3] = molecular target: T3, human Kell glycoprotein, k (KEL2) form (human, UniProt P23276 1-732); experiment: flow cytometry, indirect immunofluorescence on k/k RBCs
T3 construct: also called k form; k/k RBCs
T3 sequence: T1 sequence (looked up) with M193T
Experimental: as §1

[4] = molecular target: T4, human Kell glycoprotein, Kp^a (KEL3) form (human, UniProt P23276 1-732); experiment: flow cytometry, indirect immunofluorescence on RBCs
T4 construct: whole, on cells; also called Kp^a/Kp^a RBCs
T4 sequence (looked up): T1 sequence (looked up) with M193T, R281W
Experimental: as §1

[5] = molecular target: T1, human Kell glycoprotein transgene …; experiment: in vivo, passive immunization of mice and transfusion of KEL1+ RBCs
Experimental: The ability of PUMA1 to induce a HTR was tested by passive immunization of wild-type mice with PUMA1 (by intravenous tail-vein injection), followed by transfusion with murine KEL1+RBCs from KEL1 transgeneic mouse donors. Compared to a control group that got only PBS, PUMA1 caused a brisk clearance of KEL1+RBCs, after which, the surviving RBCs continued to circulate, as is typical of HTRs in both mice and also in humans (FIG. 13). Thus, PUMA1 specifically binds to KEL1 RBCs, in vivo, with sufficient activity to induce an HTR.

[6] = molecular target: T3, human Kell glycoprotein, k (KEL2) form; experiment: flow cytometry, indirect immunofluorescence on RBCs
Experimental: as §1

[7] = molecular target: T2, human Kell glycoprotein, K (KEL1) form; experiment: flow cytometry on RBCs (FIGS. 7A, 7B)
Experimental: as §1

binding result [1]: binds
binding result [2]: binds
binding result [3]: binds
B1: monoclonal antibody PUMA 3 (antibody, V domains shown)
VH: QVQLKESGPGLLAPSQSLSITCTVSGFSLTSYGVYWVRQPPGKGLEWLGIIWGDGSTNYQSVLRSRLSITKDDSKSQVFLKLNSLQTDDTATYYCAKRGDYDVAYWGQGTLVTVSA
VL: DIVLTQSPASLAVSLGQRAIISCKASQTVSEVGTSLMHWYQQRPGQQPKLLIYRTSNLEAGVPTRFSGSGSRTDFTLNIHPVEEDDAATYYCQQSREFPWTFGGGTRLEIK
notes: Mouse monoclonal antibody from hybridoma

binding result [4]: no binding
B2: monoclonal antibody PUMA 4 (antibody, V domains shown)
VH: EVKLEESGGGLVQPGGSMKLSCVASGFTFSNYWMNWVRQPPEKGLEWVAEIRLNSNNYATHYAESVKGKFTISRDDSKSSVYLQMNDLRAEDTGIYYCTRNWDFAWFDSWGQGTLVTVSA
VL: DIVMTQSHKFMSTSVGDRVSITCKASQDVSTVVAWYQQKPGQSPKLLIYWASTRHTGVPDRFTGSGSGTDYTLTISSVQAEDLALYYCQQHYTTPFTFGSGTKLEIK
notes: as for B1

binding result [5]: binds
binding result [6]: no binding
binding result [7]: binds
B3: monoclonal antibody PUMA 1 (antibody, V domains shown)
VH: EVQLQQSGPELVKPGASVKMSCKASGYTFTDYYMKWVKQSHGKSLEWIGDLNPNNGDTFYNQKFKGKATLTVDKSSSTAYIQLNSLTSEDSAVYYCAREAGSSFGSSCNYWGQGTTLTVS
VL: SVVMTQTPKFLLVSAGDRVTITCKASQTVSKDVAWYQQQPGQSPKLLIYYASNRYTGVPDRFTGSGYGTDFTFTISTVQAEDLAVYFCQQDYSSPYTFGGGTKLEIK
notes: also called PUMA 2; Puma 2

— patent US10253109 (BLOODWORKS, dated 2019)
